Test results reported in US7723122.

Target: protein A (UniProt P38507)
Assay: SPR, BIACORE 3000, protein A immobilised on CM5 chip, 4.4 ug/ml BSA in flow at 20 ul/min; nonlinear regression with Rmax fixed at 880 RU

## BSA (molecular weight: 66,200) (from UniProt P02769 25-607) (other; other documents disagree on this pair)
  koff: 0.11 s⁻¹
  kon: 880000 M⁻¹ s⁻¹
